Patent publication US20050048060A1 (VLAAMS INTERUNIVERSITAIR INSTITUUT, published 2005)

Biological target: T1, carcinoembryonic antigen (CEA) expressed on LS 174T cells (human, UniProt P06731 35-685)
T1 sequence (looked up): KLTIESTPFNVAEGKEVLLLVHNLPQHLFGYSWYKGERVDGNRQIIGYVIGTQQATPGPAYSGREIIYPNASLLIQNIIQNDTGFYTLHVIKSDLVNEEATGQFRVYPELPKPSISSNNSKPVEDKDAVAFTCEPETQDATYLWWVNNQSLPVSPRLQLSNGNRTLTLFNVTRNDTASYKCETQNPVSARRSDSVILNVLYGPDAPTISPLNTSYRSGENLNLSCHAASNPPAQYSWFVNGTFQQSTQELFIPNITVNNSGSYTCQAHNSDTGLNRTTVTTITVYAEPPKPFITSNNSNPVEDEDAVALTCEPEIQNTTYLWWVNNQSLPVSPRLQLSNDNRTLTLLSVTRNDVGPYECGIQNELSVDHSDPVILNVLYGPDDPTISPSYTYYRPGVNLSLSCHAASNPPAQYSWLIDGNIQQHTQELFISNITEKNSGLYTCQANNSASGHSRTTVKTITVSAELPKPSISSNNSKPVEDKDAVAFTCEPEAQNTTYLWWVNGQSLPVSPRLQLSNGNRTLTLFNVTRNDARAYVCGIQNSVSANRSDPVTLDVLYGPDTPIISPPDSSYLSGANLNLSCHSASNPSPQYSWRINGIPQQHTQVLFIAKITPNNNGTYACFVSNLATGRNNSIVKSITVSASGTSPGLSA
Assay: cell-based or functional assay

B1: cAb-CEA5-βL conjugate (other)
chain: QVQLVESGGGSVQAGGSLRLSCAASGDTYGSYWMGWFRQAPGKEREGVAAINRGGGYTVYADSVKGRFTISRDTAKNTVYLQMNSLRPDDTADYYCAASGVLGGLHEDWFNYWGQGTQVTVSSAHHSEDPSSKAPKAPMGTPVSEKQLAEVVANTITPLMKAQSVPGMAVAVIYQGKPHYYTFGKADIAANKPVTPQTLFELGSISKTFTGVLGGDAIARGEISLDDAVTRYWPQLTGKQWQGIRMLDLATYTAGGLPLQVPDEVTDNASLLRFYQNWQPQWKPGTTRLYANASIGLFGALAVKPSGMPYEQAMTTRVLKPLKLDHTWINVPKAEEAHYAWGYRDGKAVRVSPGMLDAQAYGVKTNVQDMANWVMANMAPENVADASLKQGIALAQSRYWRIGSMYQGLGWEMLNWPVEANTVVEGSDSKVALAPLPVAEVNPPAPPVKASWVHKTGSTGGFGSYVAFIPEKQIGIVMLANTSYPNPARVEAAYHILEALQHHHHHH
- concentration of 125I-labelled conjugate in LS 174T tumor xenografts against other tissues in nude mice: > 10 fold
